From patent publication US7351689

T1: zcyto24 (mouse IL-28) (mouse) (UniProt Q4VK74)
T1 sequence: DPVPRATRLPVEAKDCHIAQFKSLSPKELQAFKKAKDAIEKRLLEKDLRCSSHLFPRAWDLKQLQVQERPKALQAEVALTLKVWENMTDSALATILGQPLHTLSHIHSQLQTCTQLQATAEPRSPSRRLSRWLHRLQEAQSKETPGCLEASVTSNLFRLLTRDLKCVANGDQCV

T2: zcyto20 (IL-28A), human (human) (UniProt Q8IZJ0)
T2 sequence: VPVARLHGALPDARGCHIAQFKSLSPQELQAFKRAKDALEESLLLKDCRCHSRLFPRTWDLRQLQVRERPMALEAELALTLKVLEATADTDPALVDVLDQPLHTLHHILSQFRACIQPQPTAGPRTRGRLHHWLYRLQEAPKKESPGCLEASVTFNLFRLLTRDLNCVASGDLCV

B1: human zcytor19-Fc/human CRF2-4-Fc heterodimer (Fc fusion, from a related filing, not shown: a dimerising Fc or GST)
chain 1: RPRLAPPQNVTLLSQNFSVYLTWLPGLGNPQDVTYFVAYQSSPTRRRWREVEECAGTKELLCSMMCLKKQDLYNKFKGRVRTVSPSSKSPWVESEYLDYLFEVEPAPPVLVLTQTEEILSANATYQLPPCMPPLDLKYEVAFWKEGAGNKTLFPVTPHGQPVQITLQPAASEHHCLSARTIYTFSVPKYSKFSKPTCFLLEVPEANWA
chain 2: MVPPPENVRMNSVNFKNILQWESPAFAKGNLTFTAQYLSYRIFQDKCMNTTLTECDFSSLSKYGDHTLRVRAEFADEHSDWVNITFCPVDDTIIGPPGMQVEVLADSLHMRFLAPKIENEYETWTMKNVYNSWTYNVQYWKNGTDEKFQITPQYDFEVLRNLEPWTTYCVQVRGFLPDRNKAGEWSEPVCEQTTHDETVPS
modifications: left off: a dimerising Fc or GST
B2: human zcytor19-Fc homodimer (Fc fusion, not shown: a dimerising Fc or GST)
chain: RPRLAPPQNVTLLSQNFSVYLTWLPGLGNPQDVTYFVAYQSSPTRRRWREVEECAGTKELLCSMMCLKKQDLYNKFKGRVRTVSPSSKSPWVESEYLDYLFEVEPAPPVLVLTQTEEILSANATYQLPPCMPPLDLKYEVAFWKEGAGNKTLFPVTPHGQPVQITLQPAASEHHCLSARTIYTFSVPKYSKFSKPTCFLLEVPEANWA
B3: human CRF2-4-Fc homodimer (Fc fusion, from a related filing)
chain: MVPPPENVRMNSVNFKNILQWESPAFAKGNLTFTAQYLSYRIFQDKCMNTTLTECDFSSLSKYGDHTLRVRAEFADEHSDWVNITFCPVDDTIIGPPGMQVEVLADSLHMRFLAPKIENEYETWTMKNVYNSWTYNVQYWKNGTDEKFQITPQYDFEVLRNLEPWTTYCVQVRGFLPDRNKAGEWSEPVCEQTTHDETVPS
modifications: left off: a dimerising Fc or GST
B4: murine zcytor19-Ig homodimer (Fc fusion, mouse, UniProt Q8CGK5 21-227, looked up, not shown: a dimerising Fc or GST)
chain: RPRLAPPRNVTLFSQNFTVYLTWLPGLGSPPNVTYFVTYQSYIKTGWRPVEHCAGIKALVCPLMCLKKLNLYSKFKGRVQAASAHGRSPRVESRYLEYLFDVELAPPTLVLTQMEKILRVNATYQLPPCMPSLELKYQVEFWKEGLGSKTLFPDTPYGQPVQIPLQQGASRRHCLSARTVYTLIDIKYSQFSEPSCIFLEAPGDKRA
B5: IL-28B (SEQ ID NO: 6) (ligand)
chain: VPVARLRGALPDARGCHIAQFKSLSPQELQAFKRAKDALEESLLLKDCKCRSRLFPRTWDLRQLQVRERPVALEAELALTLKVLEATADTDPALGDVLDQPLHTLHHILSQLRACIQPQPTAGPRTRGRLHHWLHRLQEAPKKESPGCLEASVTFNLFRLLTRDLNCVASGDLCV

Assays:
Experiment in all cases: cell-based or functional assay
[1] = target: zcyto21 (SEQ ID NO:15) (human) (UniProt Q8IU54)
[2] = target: T1, zcyto24 (mouse IL-28) (mouse)
[3] = target: T2, zcyto20 (IL-28A), human (human)
[4] = target: human IL-28 receptor on transfected 293 HEK cells (IL-28 receptor alpha subunit with endogenous CRF2-4) (human)
Sequence of human IL-28 receptor on transfected 293 HEK cells (IL-28 receptor alpha subunit with endogenous CRF2-4) (human) (Q8IU57 whole entry, chain 1 of 2): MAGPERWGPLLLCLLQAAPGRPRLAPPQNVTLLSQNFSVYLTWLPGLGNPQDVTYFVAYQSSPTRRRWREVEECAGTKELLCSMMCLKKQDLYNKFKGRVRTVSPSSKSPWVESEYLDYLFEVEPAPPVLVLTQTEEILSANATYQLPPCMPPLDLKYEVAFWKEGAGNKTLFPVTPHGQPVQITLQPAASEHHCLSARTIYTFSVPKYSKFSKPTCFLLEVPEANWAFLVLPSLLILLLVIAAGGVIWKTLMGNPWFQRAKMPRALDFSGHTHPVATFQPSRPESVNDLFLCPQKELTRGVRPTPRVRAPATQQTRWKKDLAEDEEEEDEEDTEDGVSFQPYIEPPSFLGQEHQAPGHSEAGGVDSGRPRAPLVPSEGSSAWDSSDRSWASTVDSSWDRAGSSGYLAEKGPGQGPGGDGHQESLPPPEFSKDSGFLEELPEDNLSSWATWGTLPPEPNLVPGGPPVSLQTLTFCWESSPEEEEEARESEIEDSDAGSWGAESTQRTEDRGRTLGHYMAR
Sequence of human IL-28 receptor on transfected 293 HEK cells (IL-28 receptor alpha subunit with endogenous CRF2-4) (human) (Q08334 whole entry, chain 2 of 2, further chain): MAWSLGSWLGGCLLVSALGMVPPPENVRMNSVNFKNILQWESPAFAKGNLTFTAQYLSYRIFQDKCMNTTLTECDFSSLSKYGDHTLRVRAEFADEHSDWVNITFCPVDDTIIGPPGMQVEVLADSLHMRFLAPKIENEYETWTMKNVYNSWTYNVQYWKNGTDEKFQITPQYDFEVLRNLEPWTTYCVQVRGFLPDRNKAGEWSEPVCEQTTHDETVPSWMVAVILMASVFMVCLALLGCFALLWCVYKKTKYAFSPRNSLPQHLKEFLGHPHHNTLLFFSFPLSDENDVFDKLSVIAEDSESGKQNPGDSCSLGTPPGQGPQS

Sequence of zcyto21 (SEQ ID NO:15) (human) (Q8IU54 other isoform, or with tags, fused parts or gaps): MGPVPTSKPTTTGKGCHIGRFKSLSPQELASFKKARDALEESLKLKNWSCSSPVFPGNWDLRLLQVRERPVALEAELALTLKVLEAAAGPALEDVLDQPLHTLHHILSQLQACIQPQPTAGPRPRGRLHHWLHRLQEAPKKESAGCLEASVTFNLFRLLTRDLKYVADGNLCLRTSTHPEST

| Binder | Percent Inhibition of Ligand-induced Interferon Stimulated Response Element (ISRE) Signaling by Soluble Receptors (10 ng/ml ligand, 10 micrograms/ml soluble receptor) [1] | Percent Inhibition of Ligand-induced Interferon Stimulated Response Element (ISRE) Signaling by Soluble Receptors (10 ng/ml ligand, 10 micrograms/ml soluble receptor) [2] | Percent Inhibition of Ligand-induced Interferon Stimulated Response Element (ISRE) Signaling by Soluble Receptors (10 ng/ml ligand, 10 micrograms/ml soluble receptor) [3] | ISRE Signaling of Transfected 293 Cells Following Class II Cytokine Stimulation (Fold Induction), ISRE-Luc./IL-28R, IL-28B 125 ng/ml (fold induction) [4] |
| --- | --- | --- | --- | --- |
| B1 | 16% | 47% | 16% |  |
| B2 | 45% | 90% | 92% |  |
| B3 | 79% | 82% | 80% |  |
| B4 | 103% | 89% | 91% |  |
| B5 |  |  |  | 104 |
